Values joined by “and” are separate entries in the source; they are usually repeats but may differ in a detail not shown here. Equal values may be shown once. Read-outs that look alike come from different tables or passages of the source.
How the values were obtained:
Conditions in all cases: remark: other sources report otherwise
[1] = target: SARS-CoV-2 full length spike protein, wild type, expressed on the surface of CHO cells (SARS-CoV-2), P0DTC2
[2] = target: SARS-CoV-2 spike protein (SARS-CoV-2), P0DTC2; experiment: HT-SPR, Carterra LSA; mAb coupled to chip, antigen injected; 1:1 fit
[3] = target: SARS-CoV-2 full length spike protein (wild type) (SARS-CoV-2), P0DTC2
[4] = target: SARS-CoV-2 spike (S) protein (SARS-CoV-2), P0DTC2
[5] = target: SARS-CoV-2 full length spike protein (wild-type), conjugated to optically encoded beads (SARS-CoV-2), P0DTC2
[6] = target: SARS-CoV-2 spike protein (SARS-CoV-2), P0DTC2

B1: antibody 499 (antibody, V domains shown)
VH: EVQLVESGGGLVKPGGSLRLSCAASGFTFSSYSMNWVRQAPGKGLEWVSSISSSSSYIYYADSVKGRFTISRDNAKNSLYLQMNSLRAEDTAVYYCARAPAGIVVGPDYWGQGTLVTVSS
VL: NFMLTQPHSVSESPGKTVTISCTGSSGSIASNYVQWYQQRPGSAPTTVIFEDNQRPSGVPDRFSGSIDSSSNSASLTISGLKTEDEADYYCQSYHSSNPHVVFGGGTKLTVL
median fluorescence fold over isotype control (fold over isotype) [1]: 1.35 and 0.9
Kd [2]: 0.297 nM
koff [2]: 1.88e-05 s⁻¹
kon [2]: 63300 M⁻¹ s⁻¹

B2: antibody 304 (antibody, V domains shown)
VH: EVQLLESGGGLVQPGGSLRLSCAASGFTFSTYAMSWVRQAPGKGLEWVSAISGSGGSTYYADSVKGRFTISRDNSKNTLYLQMNSLRAEDTAVYYCASGYSPDYWGQGTLVTVSS
VL: AIQMTQSPSSLSASVGDRVTITCRASQGIRNDLGWYQQKPGKAPKLLIYAASSLQSGVPSRFSGSGSGTDFTLTISSLQPEDFATYYCLQDYNYPRTFGQGTKVEIK
binding signal, bead assay (fold over isotype) [3]: 1.22 and 1.17 and 1.09
Kd [4]: 3.14 nM
koff [4]: 0.000274 s⁻¹
kon [4]: 87300 M⁻¹ s⁻¹

B3: antibody 259 (antibody, V domains shown)
VH: EVQLVQSGAEVKKPGATVKISCKVSGYTFTDYYMHWVQQAPGKGLEWMGLVDPEDGETIYAEKFQGRVTITADTSTDTAYMELSSLRSEDTAVYYCATDLLSWKLYCSGGSCPQMDVWGQGTTVTVSS
VL: DIQMTQSPSSLSASVGDRVTITCRASQGIRNDLGWYQQKPGKAPKRLIYAASSLQSGVPSRFSGSGSGTEFTLTISSLQPEDFATYYCLQHNSYPQTFGQGTKLEIK
binding signal, bead assay (fold over isotype) [3]: 275

B4: antibody 270 (antibody, V domains shown)
VH: QVQLVQSGAEVKRPGTSVKVSCKTSGYTFTDHFIHWVRQAPGRRLEWMGWINPNSGGTNYAQNFQGRVTMTRDTSITTAYMDLTRLTSDDTAIYYCAREAAYGSGNLNWFDPWGQGTRVTVSS
VL: NFMLTQPHSVSESPGKTVTISCTGSSGSIAANYVHWYQQRPGSAPRTVIYEDNQRPSGVPDRFSGSIDSSSNSASLTISGLKTEDEADYYCQSYDGDSWVFGGGTKLTVL
binding signal, bead assay (fold over isotype) [3]: 305

B5: antibody 495 (antibody, V domains shown)
VH: QITLKESGPTLVKPTQTLTLTCTFSGFSLSTSGVGVGWIRQPPGKALEWLALIYWDDDKRYSPSLKSRLTITKDTSKNQVVLIMTNMDPVDTATYYCAHRDSSSWFDLDAFDIWGQGTMVIVSS
VL: QSVLTQPPSVSEAPRQRVTISCSGSSSNIGNNAVNWYQQLPGKAPKLLIYYDDLLPSGVSDRFSGSKSGTSASLAISGLQSEDEADYYCAAWDDRLNGPVFGGGTKLTVL
median fluorescence fold over isotype control (fold over isotype) [1]: 1.23 and 0.83
Kd [2]: 0.0718 nM
koff [2]: 1.55e-05 s⁻¹
kon [2]: 216000 M⁻¹ s⁻¹

B6: antibody 505 (antibody, V domains shown)
VH: EVQLVESGGGLVKPGGSLRLSCAASGFTFSSYSMNWVRQAPGKGLEWVSSISSSSSYIYYADSVKGRITISRDNAKNSLYLQMNSLRAEDTAVYYCAREYPNFRAEWLLSPYGMDVWGQGTTVTVSS
VL: QSALTQPASVSGSPGQSITISCTGTSSDVGSYNLVSWYQQHPGKAPKLMIYEVSKRPSGVSNRFSGSKSGNTASLTISGLQAEDEADYYCCSYAGSSTSVKVFGTGTKVTVL
median fluorescence fold over isotype (fold over isotype) [5]: 658
median fluorescence fold over isotype control (fold over isotype) [1]: 1.55

B7: antibody 464 (antibody, V domains shown)
VH: QVQLVQSGAEVKKPGASVKVSCKVSGYTLTELSMHWVRQAPGKGLEWMGGFDPEDGETIYAQKFQGRVTMTEDTSTDTAYMELSSLRSEDTAVYYCATARAFGVANWFDPWGQGTLVTVSS
VL: QSVLTQPPSASGTPGQRVTISCSGSSSNIGSNYVYWYQQLPGTAPKLLIYRNNQRPSGVPDRFSGSKSGTSASLAISGLRSEDEADYYCAAWDDSLSGLYVFGTGTKVTVL
Kd [6]: 4.58 nM
koff [6]: 0.000512 s⁻¹
kon [6]: 112000 M⁻¹ s⁻¹

B8: antibody 436 (antibody, V domains shown)
VH: QVQVVESGGGVVQPGRSLRLSCAASGFTFSSYAMHWVRQAPGKGLEWVAVISYDGNNEYYVDPVKGRFTISRDNSKNTLYLQMNSLRAEDTALYYCATSREAIVVGGILDYWGQGTLVTVSS
VL: DIQMTQSPSSLSASVGDRVTITCQASHDINNFLNWYQQKPGQAPKLLIYDASNLETGVPSRFSGSGSGTDFTFTISSLHPEDVATYYCQQYDGLPRYVTFGQGTKLEIR
Kd [6]: 19.4 nM
koff [6]: 0.000352 s⁻¹
kon [6]: 18200 M⁻¹ s⁻¹

B9: antibody 382 (antibody, V domains shown)
VH: QVQLVESGGGVVQPGRSLRLSCAASGFTFSNYGMHWVRQAPGKGLEWMTVISFDGRNKYYADSVKGRFTISRDNSKNTLFLQMNSLTTEDTALYFCASGRRPRYSSGWSFDYWGQGTLVTVSS
VL: DIQMTQSPSSLSASVGDRVTITCQASQDIGNYLNWYQQKLGKAPNLLIYDASNLETGVPSRFSGSGSGTDFTFTINSLQPEDTATYYCQQYDDPSITFGQGTRLEIK
Kd [4]: 11.2 nM
koff [4]: 0.00134 s⁻¹
kon [4]: 120000 M⁻¹ s⁻¹

B10: antibody 524 (antibody, V domains shown)
VH: QVQLVESGGGVVQPGRSLRLSCAASGFTFSSYAMHWVRQAPGKGLEWVAVISYDGSNKYYADSVKGRFTISRDNSKNTLYLQMNSLRAEDTAVYYCAKAGGGSYYRGFDYWGQGTLVTVSS
VL: QSVLTQPPSVSAAPGQKVTISCSGSNSNIGNNYVSWYQQLPGSAPKLLIYDNDKRPSGIPDRFSGSKSGTSATLGITGLQTGDEADYYCGAWDSSLTALVFGGGTKLTVL
median fluorescence fold over isotype control (fold over isotype) [1]: 0.58 and 0.55
Kd [2]: 34.6 nM
koff [2]: 0.00272 s⁻¹
kon [2]: 78600 M⁻¹ s⁻¹

B11: antibody 374 (antibody, V domains shown)
VH: QVQLQESGPGLVKPSGTLSLTCAVSGGSISSSKWWSWVRQPPGKGLEWIGEIYHSGSTNYNPSLKSRVTISVDKSKNQFSLKLSSVTAADTAVYYCARRELGEGTFTYWGQGTLVTVSS
VL: not shown
Kd [4]: 1.58 nM
koff [4]: 7.86e-05 s⁻¹
kon [4]: 49600 M⁻¹ s⁻¹

B12: antibody 267 (antibody, V domains shown)
VH: EVHLVQSGAEMKKPGATVKISCKVSGNTFIDHYIQWVQQAPGKGFEWMGLVDPEDGETIYAEKFQGRVTITADTSRDTAYMELSSLKSEDTAVYYCGTHGDYLDYWGQGTLVTVSS
VL: FYELTQPSSVSVSPGQTALITCSGDVVAKKYARWFQQKAGQAPVLVIYKDTERPSGIPERISGSSSGTTVTLTISGAQVEDEADYYCYSATDNNLVFGGGTKVTVL
binding signal, bead assay (fold over isotype) [3]: 312

B13: antibody 493 (antibody, V domains shown)
VH: EVQLVESGGGLIQPGRSLRLSCAASGFTVSITYMSWVRQAPGKGLEWVSLIYSGGSSYYADSVKGRFTISRDNSKNTLYLQMNSLRAEDTAVYYCATTMVRGVIISYYYGMDVWGQGTTVTVSS
VL: QSALTQPASVSGSPGQSITISCTGTSSDVGGYNYVSWYQQHPGKAPKLMIYEVSNRPSGVSNRFSGSKSGNTASLTISGLQAEDEADYYCSSYTSSSTLVFGGGTKLTVL
median fluorescence fold over isotype control (fold over isotype) [1]: 1.26 and 1.1
Kd [2]: < 0.133 nM
koff [2]: < 1e-05 s⁻¹

B14: antibody 507 (antibody, V domains shown)
VH: QVQLQESGPGLVKPSGTLSLTCAVSGGSISSSNWWSWVRQPPGKGLEWIGEIYHSGNTNYNPSLKSRVTISVDKSKNQFSLKLSSVTAADTAVYYCARREWLRLFDYWGQGTLVTVSS
VL: QSALTQPASVSGSPGQSITISCTGTSSDVGSYNLVSWYQQHPGKAPKLMIYEVSKRPSGVSNRFSGSKSGNTASLTISGLQAEDEADYYCCSYAGSSTYVFGTGTKVTVL
median fluorescence fold over isotype (fold over isotype) [5]: 571
median fluorescence fold over isotype control (fold over isotype) [1]: 1.51

B15: antibody 551 (antibody, V domains shown)
VH: EVQLVESGGGLVQPGGSLRLSCAASGFTFSSYWMSWVRQAPGKGLEWVANINQDGSDKYYVDSVKGRFTISRDNAKNSLYLQMNSLRAEDTAVYYCARAPGWAAAPTFDYWGQGTLVTVSS
VL: QSALTQPRSVSGSPGQSVTISCTGTSSDVGGYNYVSWYQQHPGKAPKFMIYDVSKRPSGVPDRFSGSKSGNTASLTISGLQAEDEADYYCCSYAGSYTLVVFGGGTKLTVL
median fluorescence fold over isotype (fold over isotype) [5]: 649

B16: antibody 383 (antibody, V domains shown)
VH: EVQLVESGGGLVQPGGSLRLSCAASGFTFSSYDMHWVRQATGKGLEWVSTIGTAGDTYYPGSVKGRFTISRENAKNSLYLQMNSLRAGDTAVYYCARVAYSSSFVYWYFDLWGRGTLVTVSS
VL: DIQMTQSPSSLSASIGDRVTITCRASQSISSYLNWYQQKPGKAPNLLIYAASSLQSGVPSRFSGSGSGTDFTLTISSLQPEDFATYYCQQSYTTPLYTFGQGTKLEIK
Kd [4]: 0.772 nM
koff [4]: 7.09e-05 s⁻¹
kon [4]: 91800 M⁻¹ s⁻¹

B17: antibody 490 (antibody, V domains shown)
VH: QVQLQESGPGLVKPSGTLSLTCAVSGGSISSSNWWSWVRQPPGKGLEWIGELYHSGSTNYNPSLKSRVTISVDKSKNQFSLKLSSVTAADTAVYYCARVGPYYYDSSGYYNYFDYWGPGTLVTVSS
VL: EIVLTQSPATLSLSPGERATLSCRASQSVSSYLAWYQQKPGQAPRLLIYDASNRATGIPARFSGSGSGTDFTLTISSLEPEDFAVYYCQQRSNWPPGITFGQGTRLEIK
median fluorescence fold over isotype control (fold over isotype) [1]: 1.07 and 1.28 and 1.08

B18: antibody 521 (antibody, V domains shown)
VH: QVQLVESGGGVVQPGRSLRLSCAASGFTFSSYGMHWVRQAPGKGLEWVAVIWYDGSNKYYADSVKGRFTISRDNSKNTLYLQMNSLRAEDTAVYYCAREGNDYGDYGEWELLGYFDYWGQGTLVTVSS
VL: SYELTQPPSVSVSPGQTARITCSGDALPKKYAYWYQQKSGQAPVLVIYEDSKRPSGIPERFSGSSSGTMATLTISGAQVEDEADYYCYSTDSSGNHRRVFGGGTKLTVL
median fluorescence fold over isotype control (fold over isotype) [1]: 2.42 and 0.86
Kd [2]: 9.9 nM
koff [2]: 0.000299 s⁻¹
kon [2]: 30200 M⁻¹ s⁻¹

— patent publication US20210292393A1
